Patent US20220235103A1 (Molecular Partners, published 2022)

Experiments:
Assay in all cases: cell-based or functional assay
[1] = target: spike protein of live SARS-CoV-2 (2019-nCoV/IDF0372/2020) (SARS-CoV-2, UniProt P0DTC2 14-1273)
[2] = target: T1, SARS-CoV-2 spike protein, wild type (Wuhan) (SARS-CoV-2, UniProt P0DTC2 14-1273)
[3] = target: T1, SARS-CoV-2 spike protein, wild type …; remark: listed apart in the source
[4] = target: SARS-CoV-2 spike protein N439K (SARS-CoV-2, UniProt P0DTC2 14-1273)
[5] = target: SARS-CoV-2 spike protein D614G (SARS-CoV-2, UniProt P0DTC2 14-1273)
[6] = target: SARS-CoV-2 spike protein E484K (SARS-CoV-2, UniProt P0DTC2 14-1273)
[7] = target: T1, SARS-CoV-2 spike protein, wild type …; remark: listed apart in the source
[8] = target: SARS-CoV-2 spike protein K417E (SARS-CoV-2, UniProt P0DTC2 14-1273)
[9] = target: SARS-CoV-2 spike protein F490S (SARS-CoV-2, UniProt P0DTC2 14-1273)
[10] = target: SARS-CoV-2 spike protein N501Y (SARS-CoV-2, UniProt P0DTC2 14-1273)
[11] = target: SARS-CoV-2 spike protein P479S (SARS-CoV-2, UniProt P0DTC2 14-1273)
[12] = target: SARS-CoV-2 spike protein V483A (SARS-CoV-2, UniProt P0DTC2 14-1273)
[13] = target: SARS-CoV-2 spike protein F486V (SARS-CoV-2, UniProt P0DTC2 14-1273)
[14] = target: SARS-CoV-2 spike protein variant B.1.351 (SARS-CoV-2, UniProt P0DTC2 14-1273)
[15] = target: SARS-CoV-2 spike protein S477N (SARS-CoV-2, UniProt P0DTC2 14-1273)
[16] = target: SARS-CoV-2 spike protein Y453F (SARS-CoV-2, UniProt P0DTC2 14-1273)
[17] = target: SARS-CoV-2 spike protein T478I (SARS-CoV-2, UniProt P0DTC2 14-1273)
[18] = target: SARS-CoV-2 spike protein Q493K (SARS-CoV-2, UniProt P0DTC2 14-1273)

| Binder | protection of Vero E6 cells from SARS-CoV-2 cytopathic effect [1] [nM] | IC50, SARS-CoV-2 VSV pseudovirus neutralization (luciferase) [2] [nM] | VSV-SARS-CoV-2 IC50 [3] [nM] | VSV Pseudotype Neutralization Assay IC50 [4] [ng/mL] | VSV Pseudotype Neutralization Assay IC50 [5] [ng/mL] | VSV Pseudotype Neutralization Assay IC50 [6] [ng/mL] | VSV Pseudotype Neutralization Assay IC50 [7] [ng/mL] | VSV Pseudotype Neutralization Assay IC50 [8] [ng/mL] | VSV Pseudotype Neutralization Assay IC50 [9] [ng/mL] | VSV Pseudotype Neutralization Assay IC50 [10] [ng/mL] | VSV Pseudotype Neutralization Assay IC50 [11] [ng/mL] | VSV Pseudotype Neutralization Assay IC50 [12] [ng/mL] | VSV Pseudotype Neutralization Assay IC50 [13] [ng/mL] | VSV Pseudotype Neutralization Assay IC50 [14] [ng/mL] | VSV Pseudotype Neutralization Assay IC50 [15] [ng/mL] | VSV Pseudotype Neutralization Assay IC50 [16] [ng/mL] | VSV Pseudotype Neutralization Assay IC50 [17] [ng/mL] | VSV Pseudotype Neutralization Assay IC50 [18] [ng/mL] |
| --- | --- | --- | --- | --- | --- | --- | --- | --- | --- | --- | --- | --- | --- | --- | --- | --- | --- | --- |
| vS07_19G10 (designed binder, also called R2a) MRGSHHHHHHGSDLGNKLLDAAWVGQDDEVRILLAAGADVNAKDWQGETPLHLAATKGHLEIVEVLLKAGADVNAKDVVGYTPLHVAASQGHLEIVEVLLKAGADVNAQDVHGYTPADLAAQAGHEDIAEVLQKAA | 100 |  |  |  |  |  |  |  |  |  |  |  |  |  |  |  |  |  |
| ALE033 (designed binder) MRGSHHHHHHGSDLGKKLLEAARAGQDDEVRELLKAGADVNAKDYFSHTPLHLAARNGHLKIVEVLLKAGADVNAKDFAGKTPLHLAANEGHLEIVEVLLKAGADVNAQDIFGKTPADIAADAGHEDIAEVLQKAAGSPTPTPTTPTPTPTTPTPTPTGSDLGKKLLEAARAGQDDEVRELLKAGADVNAKDYFSHTPLHLAARNGHLKIVEVLLKAGADVNAKDFAGKTPLHLAANEGHLEIVEVLLKAGADVNAQDIFGKTPADIAADAGHEDIAEVLQKAAGSPTPTPTTPTPTPTTPTPTPTGSDLGKKLLQAARAGQLDEVRELLKAGADVNAKDREGITPLHLAAQHGHLEIVEVLLKAGADVNAKDVWGRTPLHLAAWQGHLEIVEVLLKAGADVNAKDLAGATPLHVAALYGHLEIVEVLLKAGADVNAQDKSGKTPADLAARAGHQDIAEVLQKAAGSPTPTPTTPTPTPTTPTPTPTGSDLGKKLLQAARAGQLDEVRELLKAGADVNAKDREGKTPLHVAAQEGHLEIVEVLLKAGADVNAKDVWGRTPLHLAAWIGHLEIVEVLLKAGADVNAKDVSGATPLHAAALHGHLEIVEVLLNAGADVNAQDKSGKTPADLAARAGHQDIAEVLQKAAGSPTPTPTTPTPTPTTPTPTPTGSDLGKKLLQAARAGQLDEVRELLKAGADVNAKDREGITPLHLAAQHGHLEIVEVLLKAGADVNAKDVWGRTPLHLAAWQGHLEIVEVLLKAGADVNAKDLAGATPLHVAALYGHLEIVEVLLKAGADVNAQDKSGKTPADLAARAGHQDIAEVLQKAA |  | 0.125 |  |  |  |  |  |  |  |  |  |  |  |  |  |  |  |  |
| vS07_23E04 (designed binder, also called R3c) MRGSHHHHHHGSDLGKKLLQAARAGQLDEVRELLKAGADVNAKDQEGITPLHVAAHQGHLEIVEVLLKAGADVNAKDVWGRTPLHLAAWRGHLEIVEVLLKAGADVNAKDHAGATPLHAAALSGHLEIVEVLLKAGADVNAQDKSGKTPADLAARAGHQDIAEVLQKAA | 20 |  | < 2 | 12.9 | 23 | > 100 | 13.3 | 3.6 | 8.1 | 27.8 | 27.6 | 21.3 | > 100 | > 100 | 9 | 3.3 | 16.7 | 45.8 |
| vS07_29B10 (designed binder, also called R3b) MRGSHHHHHHGSDLGKKLLQAARAGQLDEVRELLKAGADVNAKDREGITPLHLAAQHGHLEIVEVLLKAGADVNAKDVWGRTPLHLAAWQGHLEIVEVLLKAGADVNAKDLAGATPLHVAALYGHLEIVEVLLKAGADVNAQDKSGKTPADLAARAGHQDIAEVLQKAA | 20 |  | < 2 | 7.3 | 11.9 | 64.2 | 7.2 | 1.8 | 2.3 | 9.1 | 7.2 | 21.8 | > 100 | 76 | 3 | 10.9 | 11.2 | 30 |
| vS07_12C06 (designed binder, also called R1b; Rb1) MRGSHHHHHHGSDLGKKLLQAARAGQLDEVRELLKAGADVNAKDREGKTPLHVAAQEGHLEIVEVLLKAGADVNAKDVWGRTPLHLAAWIGHLEIVEVLLKAGADVNAKDVSGATPLHAAALHGHLEIVEVLLNAGADVNAQDKSGKTPADLAARAGHQDIAEVLQKAA | 2 |  | < 2 | 5.3 | 6.2 | 10.2 | 2.1 | 1 | 1.7 | 4.8 | 2.3 | 8.4 | > 100 | 26 | 2 | 5.9 | 3.1 | 28.2 |
| vS07_14G03 (designed binder, also called S2a) MRGSHHHHHHGSDLGQKLLHAAQYGQDDEVRILLAAGADVNAKDKQGNTPLHIAAFHGHLEIVEVLLKAGADVNAKDQWGLTPLHLAAAWGHLEIVEVLLKAGADVNAQDNYGQTPADLAAESGHEDIAEVLQKAA |  |  | < 100 |  |  |  |  |  |  |  |  |  |  |  |  |  |  |  |
| ALE038 (designed binder) MRGSHHHHHHGSDLGKKLLEAARAGQDDEVRELLKAGADVNAKDYFSHTPLHLAARNGHLKIVEVLLKAGADVNAKDFAGKTPLHLAANEGHLEIVEVLLKAGADVNAQDIFGKTPADIAADAGHEDIAEVLQKAAGSPTPTPTTPTPTPTTPTPTPTGSDLGKKLLEAARAGQDDEVRELLKAGADVNAKDYFSHTPLHLAARNGHLKIVEVLLKAGADVNAKDFAGKTPLHLAANEGHLEIVEVLLKAGADVNAQDIFGKTPADIAADAGHEDIAEVLQKAAGSPTPTPTTPTPTPTTPTPTPTGSDLGKKLLQAARAGQLDEVRELLKAGADVNAKDREGKTPLHVAAQEGHLEIVEVLLKAGADVNAKDVWGRTPLHLAAWIGHLEIVEVLLKAGADVNAKDVSGATPLHAAALHGHLEIVEVLLNAGADVNAQDKSGKTPADLAARAGHQDIAEVLQKAAGSPTPTPTTPTPTPTTPTPTPTGSDLGKKLLQAARAGQLDEVRELLKAGADVNAKDREGITPLHLAAQHGHLEIVEVLLKAGADVNAKDVWGRTPLHLAAWQGHLEIVEVLLKAGADVNAKDLAGATPLHVAALYGHLEIVEVLLKAGADVNAQDKSGKTPADLAARAGHQDIAEVLQKAAGSPTPTPTTPTPTPTTPTPTPTGSDLGHKLLLAAQAGQDDEVRILLAAGADVNAKDVFGQTPLHVAAVAGHLEIVEVLLKAGADVNAKDSIGYTPLHHAARVGHLEIVEVLLKAGADVNAQDWIGITPADLAAFEGHEDIAEVLQKAA |  | 0.264 |  |  |  |  |  |  |  |  |  |  |  |  |  |  |  |  |
| ALE030 (designed binder) MRGSHHHHHHGSDLGKKLLEAARAGQDDEVRELLKAGADVNAKDYFSHTPLHLAARNGHLKIVEVLLKAGADVNAKDFAGKTPLHLAANEGHLEIVEVLLKAGADVNAQDIFGKTPADIAADAGHEDIAEVLQKAAGSPTPTPTTPTPTPTTPTPTPTGSDLGKKLLEAARAGQDDEVRELLKAGADVNAKDYFSHTPLHLAARNGHLKIVEVLLKAGADVNAKDFAGKTPLHLAANEGHLEIVEVLLKAGADVNAQDIFGKTPADIAADAGHEDIAEVLQKAAGSPTPTPTTPTPTPTTPTPTPTGSDLGKKLLQAARAGQLDEVRELLKAGADVNAKDREGITPLHLAAQHGHLEIVEVLLKAGADVNAKDVWGRTPLHLAAWQGHLEIVEVLLKAGADVNAKDLAGATPLHVAALYGHLEIVEVLLKAGADVNAQDKSGKTPADLAARAGHQDIAEVLQKAAGSPTPTPTTPTPTPTTPTPTPTGSDLGNKLLDAAWVGQDDEVRILLAAGADVNAKDWQGETPLHLAATKGHLEIVEVLLKAGADVNAKDVVGYTPLHVAASQGHLEIVEVLLKAGADVNAQDVHGYTPADLAAQAGHEDIAEVLQKAAGSPTPTPTTPTPTPTTPTPTPTGSDLGKKLLQAARAGQLDEVRELLKAGADVNAKDREGKTPLHVAAQEGHLEIVEVLLKAGADVNAKDVWGRTPLHLAAWIGHLEIVEVLLKAGADVNAKDVSGATPLHAAALHGHLEIVEVLLNAGADVNAQDKSGKTPADLAARAGHQDIAEVLQKAA |  | 0.119 |  |  |  |  |  |  |  |  |  |  |  |  |  |  |  |  |
